We go through 9 substances from PMC3773880.

Assay [1] concerns the target high molecular weight gingipain R (HRgpA) (Porphyromonas gingivalis). The assay is described as follows: enzyme inhibition kinetics.
The target in assay [2] is low molecular weight gingipain R (RgpB) (Porphyromonas gingivalis) (UniProt P95493). Kind of assay: enzyme inhibition kinetics.
Assay [3] concerns the target high molecular weight gingipain R (HRgpA) (Porphyromonas gingivalis).

Consider “PD_(RgpA), recombinant N-terminal prodomain of RgpA (from UniProt P28784 24-227) (domain or fragment)”, for which the Ki (usually the equilibrium dissociation constant of an inhibitor or competing ligand from its target) in assay [1] came out at 0.85 nM. In other words, the sub-nanomolar range.

For PD_(RgpB) R66A (domain or fragment), in assay [2], the Ki is 4.9 nM.

PD_(RgpB) R66K (domain or fragment) came in with a Ki in assay [2] of 31 nM.

For the substance PD_(RgpB) R102A (domain or fragment), the Ki in assay [2] is above 5000 nM.

As to PD_(RgpB) R102E (domain or fragment), the Ki in assay [2] is above 5000 nM.

In assay [2], PD_(RgpB) R102K (domain or fragment) registered a Ki of 45.6 nM.

PD_(RgpB) R102Q (domain or fragment): in assay [2], the Ki was above 5000 nM.

In turn, PD_(RgpB) R159K (domain or fragment) registered a Ki in assay [2] of 7.7 nM.

On to “PD_(RgpB), recombinant N-terminal prodomain of RgpB (from UniProt P95493 25-229) (domain or fragment)”, for which, in assay [3], the IC50 of inhibition of amidolytic activity (L-BAPNA), 10 nM enzyme came to 12.6 nM; the IC50 of inhibition of aminopeptidase activity (H-Arg-AMC), 10 nM enzyme stood at 4.9 nM; the IC50 of inhibition of proteolytic activity (Azocoll), 10 nM enzyme turned out to be 5.8 nM. The substance also registered a Ki in assay [1] of 5.3 nM.
